According to IntAct's records for PubMed 18940603:

B1: Ras-related protein Rab-27A (Mus musculus), Q9ERI2 (parent)
chain: MSDGDYDYLIKFLALGDSGVGKTSVLYQYTDGKFNSKFITTVGIDFREKRVVYRANGPDGAVGRGQRIHLQLWDTAGQERFRSLTTAFFRDAMGFLLLFDLTNEQSFLNVRNWISQLQMHAYCENPDIVLCGNKSDLEDQRAVKEEEARELAEKYGIPYFETSAANGTNISHAIEMLLDLIMKRMERCVDKSWIPEGVVRSNGHTSADQLSEEKEKGLCGC
partner: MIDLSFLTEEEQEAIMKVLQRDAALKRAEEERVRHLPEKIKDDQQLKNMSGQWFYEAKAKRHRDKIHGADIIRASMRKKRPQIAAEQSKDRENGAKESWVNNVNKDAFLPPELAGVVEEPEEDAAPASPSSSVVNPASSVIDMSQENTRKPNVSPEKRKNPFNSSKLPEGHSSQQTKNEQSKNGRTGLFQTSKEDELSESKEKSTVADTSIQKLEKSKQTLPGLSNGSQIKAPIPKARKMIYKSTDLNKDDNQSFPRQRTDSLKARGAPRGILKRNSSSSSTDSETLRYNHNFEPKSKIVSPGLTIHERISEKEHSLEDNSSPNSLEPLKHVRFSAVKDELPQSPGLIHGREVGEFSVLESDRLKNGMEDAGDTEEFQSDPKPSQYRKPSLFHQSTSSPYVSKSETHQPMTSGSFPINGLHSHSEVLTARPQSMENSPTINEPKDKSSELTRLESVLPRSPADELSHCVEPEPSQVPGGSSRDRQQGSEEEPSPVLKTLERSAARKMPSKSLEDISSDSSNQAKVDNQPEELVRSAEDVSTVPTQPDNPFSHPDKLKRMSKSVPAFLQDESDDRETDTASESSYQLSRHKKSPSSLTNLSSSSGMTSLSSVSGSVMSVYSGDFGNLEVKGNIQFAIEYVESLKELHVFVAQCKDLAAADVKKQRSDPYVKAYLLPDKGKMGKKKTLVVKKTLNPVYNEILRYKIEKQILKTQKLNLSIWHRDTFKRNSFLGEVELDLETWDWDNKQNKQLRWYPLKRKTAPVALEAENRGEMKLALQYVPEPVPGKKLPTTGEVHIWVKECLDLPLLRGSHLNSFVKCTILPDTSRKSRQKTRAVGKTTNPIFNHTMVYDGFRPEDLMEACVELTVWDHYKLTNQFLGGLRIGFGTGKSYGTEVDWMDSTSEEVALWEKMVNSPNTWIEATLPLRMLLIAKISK
B2: Ras-related protein Rab-27B (Mus musculus), Q99P58 (parent)
chain: MTDGDYDYLIKLLALGDSGVGKTTFLYRYTDNKFNPKFITTVGIDFREKRVVYDTQGADGASGKAFKVHLQLWDTAGQERFRSLTTAFFRDAMGFLLMFDLTSQQSFLNVRNWMSQLQANAYCENPDIVLIGNKADLPDQREVNERQARELAEKYGIPYFETSAATGQNVEKSVETLLDLIMKRMEKCVEKTQVPDTVNGGNSGKLDGEKPAEKKCAC
partner: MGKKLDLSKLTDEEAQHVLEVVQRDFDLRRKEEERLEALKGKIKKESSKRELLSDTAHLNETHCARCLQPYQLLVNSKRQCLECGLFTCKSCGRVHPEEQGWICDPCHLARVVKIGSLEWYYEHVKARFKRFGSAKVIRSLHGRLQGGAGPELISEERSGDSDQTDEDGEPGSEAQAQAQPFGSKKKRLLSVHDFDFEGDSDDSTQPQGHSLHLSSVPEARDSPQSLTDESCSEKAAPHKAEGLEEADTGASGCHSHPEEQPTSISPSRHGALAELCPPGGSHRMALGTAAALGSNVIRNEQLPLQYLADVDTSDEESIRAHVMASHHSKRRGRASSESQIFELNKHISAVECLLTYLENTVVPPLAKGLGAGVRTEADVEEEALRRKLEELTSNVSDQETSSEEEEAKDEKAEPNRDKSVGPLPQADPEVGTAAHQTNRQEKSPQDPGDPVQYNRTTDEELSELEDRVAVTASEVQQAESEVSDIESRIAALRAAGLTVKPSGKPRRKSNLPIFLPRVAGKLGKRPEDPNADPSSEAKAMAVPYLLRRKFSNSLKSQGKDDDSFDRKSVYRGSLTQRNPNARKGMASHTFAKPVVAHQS
B3: Ras-related protein Rab-27B (Mus musculus), Q99P58 (parent)
chain: B2 chain
partner: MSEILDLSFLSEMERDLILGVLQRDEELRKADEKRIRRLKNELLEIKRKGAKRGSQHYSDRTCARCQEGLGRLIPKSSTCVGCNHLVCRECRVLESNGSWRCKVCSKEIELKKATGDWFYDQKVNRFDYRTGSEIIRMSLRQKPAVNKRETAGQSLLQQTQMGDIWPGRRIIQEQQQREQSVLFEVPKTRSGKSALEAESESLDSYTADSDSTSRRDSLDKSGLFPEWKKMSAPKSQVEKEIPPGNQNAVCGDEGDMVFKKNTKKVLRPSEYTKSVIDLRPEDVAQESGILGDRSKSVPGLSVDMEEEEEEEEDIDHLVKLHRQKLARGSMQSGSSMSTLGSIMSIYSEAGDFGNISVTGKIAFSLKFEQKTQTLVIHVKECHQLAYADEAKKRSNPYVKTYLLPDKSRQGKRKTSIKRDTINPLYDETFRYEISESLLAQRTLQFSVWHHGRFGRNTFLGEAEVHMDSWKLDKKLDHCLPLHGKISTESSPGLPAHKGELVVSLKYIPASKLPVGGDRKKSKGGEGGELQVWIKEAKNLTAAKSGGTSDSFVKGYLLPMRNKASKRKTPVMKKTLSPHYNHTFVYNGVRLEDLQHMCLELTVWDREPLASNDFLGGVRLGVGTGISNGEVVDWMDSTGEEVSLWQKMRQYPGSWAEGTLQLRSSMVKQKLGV
B4: Ras-related protein Rab-27A (Mus musculus), Q9ERI2 (parent)
chain: B1 chain
partner: B3 partner
B5: Ras-related protein Rab-27A (Mus musculus), Q9ERI2 (parent)
chain: B1 chain
partner: B2 partner
B6: Ras-related protein Rab-27B (Mus musculus), Q99P58 (parent)
chain: B2 chain
partner: B1 partner

Variants of: B1
Details: with sytl2_human SYTL2, Q9HCH5

Variant	effect of a mutation on the interaction
C123S;C188S	increasing interaction

Variants of: B2
Details: with melph_human MLPH

Variant	effect of a mutation on the interaction
C123S;C188S	increasing interaction
C188S	increasing interaction

Variants of: B3
Details: with Sytl4, Q9R0Q1-1

Variant	effect of a mutation on the interaction
C123S	increasing interaction
C123S;C188S	increasing interaction
C188S	increasing interaction

Variants of: B4
Details: with Sytl4, Q9R0Q1-1

Variant	effect of a mutation on the interaction
C123S	increasing interaction
C123S;C188S	increasing interaction
C188S	increasing interaction

Variants of: B5
Details: with melph_human MLPH

Variant	effect of a mutation on the interaction
C123S;C188S	increasing interaction
C188S	increasing interaction

Variants of: B6
Details: with sytl2_human SYTL2, Q9HCH5

Variant	effect of a mutation on the interaction
C123S;C188S	increasing interaction
